# Measured values as given in article PMC2662417, “Pxmp2 Is a Channel-Forming Protein in Mammalian Peroxisomal Membrane” (PLoS ONE, 2009).
# B1: native Pxmp2 purified from mouse liver peroxisomes (natural protein, mouse (endogenous in mouse liver), UniProt P42925 1-194, looked up)
# chain: MAPAASRLRVESELGSLPKRALAQYLLLLKLYPVLTKAVSSGILSALGNLLAQTIEKKQRKDSRLLEVSGLLRYLVYGLFVTGPLSHYLYLFMEYSVPPEVPWASVKRLLLDRLFFAPTFLLLFFFVMNLLEGKNVSVFVAKMRSGFWPALQMNWRMWTPLQFININYVPLQFRVLFANMAALFWYAYLASLGK
# notes: Pxmp2, peroxisomal membrane protein 2 (22 kDa), mouse; native protein isolated from liver peroxisomes; also called PMP22; purified Pxmp2; source: purified from mouse liver peroxisomes (conventional chromatography: ion-exchange and size-exclusion steps, in detergent)
# B2: His-tagged Pxmp2 protein (natural protein, mouse, UniProt P42925 1-194, looked up)
# chain: MAPAASRLRVESELGSLPKRALAQYLLLLKLYPVLTKAVSSGILSALGNLLAQTIEKKQRKDSRLLEVSGLLRYLVYGLFVTGPLSHYLYLFMEYSVPPEVPWASVKRLLLDRLFFAPTFLLLFFFVMNLLEGKNVSVFVAKMRSGFWPALQMNWRMWTPLQFININYVPLQFRVLFANMAALFWYAYLASLGK
# notes: Pxmp2, mouse, recombinant with a His tag (about 27 kDa); also called mouse recombinant Pxmp2
# Assays:
# [1] = target: the molecule itself; test: SEC + cross-linking; purified native Pxmp2 in detergent; Superdex 200 size-exclusion chromatography; protein eluted from the column treated with Sulfo-EGS, immunoblot with anti-Pxmp2; details in Text S1
# [2] = target: the molecule itself; test: cross-linking; Genapol X-080-solubilised proteins (about 50 ug) of the PPF of Sf9 cells expressing His-tagged Pxmp2; DSS at 0.1, 0.2, 0.5 and 1.0 mM, 30 min at room temperature; SDS-PAGE, immunoblot with anti-His-tag antibodies
protein,measurement,setting,value
B1,stoichiometry N,[1],3
B2,stoichiometry N,[2],3
